A short description of this data set: label from the status in PepcDB records.
On to “EHIARRKAGDAAERLVKLIPAFCHHMPDYPDTQETCEAAVVKLKAGDIVLVKPGETIPVDGTVLEGSSAVNESMLTGESLPVAKMPSEKVTAGTLNTQSPLIIRTDRTGGGTRLSHIVRLLDRALAQKPRTAELAEQ”, for which the protein production result is “failed”. As to “RTFESVADLAAAAGEKVGQSDWVTITQEEVNLFADATGDHQWIHVDPERAAAGPFGTTIAHGFMTLALLPRLQHQMYTVKGVKLAINYGLNKVRFPAPVPVGSRVRATSSLVGVEDLGNGTVQATVSTTVEVEGSAKPACVAESIVRYVA”, the protein production result is “not failed”. Consider “MNFAGKHVGFGLTGSHCTYHEVLPQMERLVELGAKVTPFVTHTVQTTDTKFGESSEWINKIKQITEEPIVDSMVKAEPFGPKTPLDCMVIAPMTGNSTSKFANAMTDSPVLMGAKATLRNGKPVVVGISTNDALGLNGINIMRLMATKNIYFIPFGQDNPQVKPNSLVARMEALPETIEAALRGQQYQPVLIEKFRD”, for which the protein production entry was “not failed”. On to “MSKLSLKIGTYFLILALCIETIAFVSFYKSLSKMRIVEETDALLEKGNRYSKKIKSRERRDEYYKEMKHAEHNKNPKRPVYPEFDITNEAAHLVESESISNSDIAIIITDHNGKIISTSEPVTKDMQKQLTCKTETVPDGGLVVERNWKKSKFITTVSPLNTTKFQGKLYMLLKTSFLENMLLKLMNQFLIISVLTIILTTISVFVFSRVITEPLVKMKRATEKMSKLNKPIQLGIKRNDELGSLAKTIEDLSSELTYMKKERNEFLASVAHELLTPLTYMKGYAKVAKRDSLTKEEREEYLQIIEDETDSVTDLVQDLFMLVQLEQHQFVIKKQKVLLQPFLERMVEKTKTTLTNKQMQLHVYCKDDLEVCIDERRMEQVMLNLLHNAYQHSPENTAITIRVLMETDSFTISVQDEGEGIPEEDIPHIFDRFYRVDKSRTRATGGKGIGLAVAKEIVELHNGSILVTSQLGAGTNFIIELPFE”, for which the protein production entry is reported as “failed”. The result for “MELLCHEVDPVRRAVRDRNLLRDDRVLQNLLTIEERYLPQCSYFKCVQKDIQPYMRRMVATWMLEVCEEQKCEEEVFPLAMNYLDRFLAGVPTPKSHLQLLGAVCMFLASKLKETSPLTAEKLCIYTDNSIKPQELLEWELVVLGKLKWNLAAVTPHDFIEHILRKLPQQREKLSLIRKHAQTFIALCATDFKFAMYPPSMIATGSVGAAICGLQQDEEVSSLTCDALTELLAKITNTDVDCLKACQEQIEAVLLNSLQQYRQDQRDGSKSEDELDQASTPTDVRDIDL” reads “not failed”; that for “MSNNQQMMLNRIKVVLAEKQRTNRWLAEQMGKSENTISRWCSNKSQPSLDMLVKVAELLNVDPRQLINGKIKI”, “not failed”. For “MGKVSSLKLKTNRRCIYITTIKEITEAIKADPDNAEYTAKGWDPLFHVLPTATILVISQAPGRIAQNTKTYFNDASGDRLRDWMGVTREQFYQSDRIAVMPLDFYYPGKGKSGDLPPRKGFMDKWHEPLLAMMPNVQLTLLVGQYAIKAYLGRSRQKTLTATVQNYQDYLPDYFPLVHPSPLNYGWQKKNPWFQATVVPDLQRRVQIALK”, the protein production result was “failed”. For “MKKRNISVPSKAYLALIIATLCWGGNTVAGKLAVGHISPMAFTFLRWVLAVAIIFAISVPQLIKDWPVVKQRLPYFFVLGSVGYTAFNVFLYTALQHTSAINAAVIQAGIPMVIFVLNFVLFRTRVLFGQIAGFCLTISGVALLASHGDPLSLLQLEMNVGDAVMLLAVLVYAIYTVILRWKPAVDWRTLMAIPAFFALLTSVPLVFFEMSRESLIWPDQKGWMLVVYAGIFASLIAQILYIKGVEQIGANRAGLFINLVPVFGTLLSVFVLSETLHTYQIAALFMALAGIAVAERKKSPAS”, the protein production entry is “failed”.

As to “MMLAGCQSEEETSQFLLACKYDAPATIAAMLDNGIDVDGQDKTGLSGLMVAAAENRRDVVELLLKRRAKPNLQTRQGVTALMLAAARGSDTAIIGDLLQAGASVNQTSIDKSTALMSAISDGGDVRNDYQHILAMKKPDAPVEEESTLDKIVGATAAKSLATGNRALMTEDMALQLAPGAFKKNVDEIVALLLKHGADVKAVNVSGESAFFLAVDHARSAETITTLANAGADTSLADKSGTTPLMLAAAGDDPDLVLALSASGVEVDKPNREGLTALQVAAGQGAPAVIAALAQRGAKVDQLSANDLSPLMLAVKMNNKANVEALLAAGASVNLSNKAGYTAIGYSRAGEVRQLLLAQHAELKGQAAHMAQSELQFCANAFADKLAYSDIARAVNNDTRPDIMRHQQSCPELGELTMLLGEFTFTPAGATYLGEPVTCKVSEYRKTFEVNCR”, the protein production entry is “failed”.

Consider “MLTIREIQSLVHKGEPGQWSHTKALYFFIAPSGRPFWAIRYMLKGRRRQMSLTDSIPATVRELKQIELLSETEREKVRKGIDPLAEREAAKAASPEPVRQLVTFKSVALDYIAANRGGWKNAKHVQQWENTLATYVYPVIGHLEPQSITTAEVLKILQPLWATKRETASRVRSRVETIIGAAKAKGMSEKPEIWANHHNPARWADNLEFWLNGKQEKNHFSAMPYPEIPAFAQSIAEREDYSTKALQFLILTATRTNETLGAEWSEIDTEKAVWTIPASRMKSGKEHRVPLSSEALKLVASLLRIEGNPYLFPGAIRNKSLSNMALLMVMRGLKLGHYVPHGFRSAFRDWAAEETVYPNHIVEMALAHTIKNKVEAAYRRGDLMEKRRQLMEDWSAYLASAR”, for which the protein production entry was “failed”. For the sequence “MTIQLLNDRYQVIRTLGAGGFGETYLAEDTYMPSKRRCVVKQLRPIQNNPQIYQLVQERFQREAAILEELGGATEQIPALYAYFSADGQFYLVQEWVEGDTLTGRLQQQGLFTESAIQELLVNLLPVLEYVHSKHIVHRDIKPDNIILRHRDGKPVLIDFGAVRESMGTVVNSQGNPTSSIVIGTPGYMPSEQAAGRPVYSSDLYSLGLTAIYLLTGRQPQTLEIDSQTGEIMWRQYASQMNPILASVLDKAIAYHPRDRYATARAMLDNLQSISSPIPPTQPYFAPPPVVSAPPQPTVPVAPQANVTGNNQKGILFGSLIAGGLIGASVIIGLAFTRTPQPVAENNNTSPVNSITETPVIKATPEVTQPPVTAQPIVPSPQQQVNSSPFPSITSVPIDVNINNNNYLWLSQQAVTDADLDDKDGYTLDIMRNTVFARHGRRFDNPGLQDYFNNQPWYNPIYSPKEFPIKLLTRLEQRNVDYIAAYQKRYNLRHFK”, the protein production entry is reported as “failed”. On to “MFSPEQIAGKDVRLLRIKKEGSLDLALEGGVDSPVGKVVVSAVYEGGAAERHGGVVKGDEIMAINGKIVTDYTLAEAEAALQKAWNQGGDWIDLVVAVCPPKEYDDELTFF”, for which the protein production result is “not failed”. For “MKSYVLGEFGAEAALLDAARTLRARGGATLDLHSPYPLHGAEEALGLRKSTVPLVALVAGITGAVSGYLLQWYTVGYAWPLNVGNRPPHSAPAFIPVTFELGVLFSALAIFVGLLAVYFGFPRVHHPVFEVEAFRSASIDGLWLSAEVEAGDADAVAAELRRLGARLVSVVPEGK”, the protein production result is given as “failed”.

Take “MKDTLKIGLLGLGTVGTGVLTLLKEHQEKISQVTGMNVVIEKAFVRNLETKQAQAEEYGLSLTTSIDDILEDKEIQIVVELMGTIEPAKTYIMKALEKGKHIVTANKDLLAQHGSELVALAQKHHCDLYYEASVAGGIPILRTIANSLAADNIQQVLGIVNGTTNYMLTQMVSADKSYEEALAEAQALGFAEADPTNDVDGIDAAYKMVILSQFAFGMNVSLPQVDIRGIRGLSLDDVAMAKQLGYEIKLIGSAEQNENSISVEVAPMLVNQKHPIASVRNEYNAVFIKSAGVGESMYYGPGAGAKPTATSVVSDLITIAKNIRLATTGHMFNSYQHKTQLTSSENVFGQYYFSLDVPDTPGQFLQLTQLMTKAEVSFDQLVQQKSDGQRARIVAITHQISKAQMQQVVIAIQNTEAFQLLNVMKVIGDE”: the protein production entry is on record as “failed”. Consider “MAWGVCDINGSFAGQNPVTTRLSVRRCQWRCVDFAHSKCLRTQNYRVQMRSCRTGVYGSPRGDANEAVPPPHQPKGPLRTMPLETLINAGFVDYLILLIYFVFVLGIGLAARHQVSDSLDFFLSGRSLPGWVTGLAFVSANLGAVEIMGMSANGAQIGIPTVHYFWIGAIPAMVFLGIVMMPFYYGSGVRSVPEFMLKRFGPAAHLVNAISFALAQLLIAGINLYLLGTIVHALLGWPLWVALIVAAMIVLAYISLGGLSAAIYNEVLQFFVIVASLLPLVIIGLHRVGGWSGLKAKITAAAEAHPDVVTPAAQQLHSWPGQALSGFGSPVMSVIGITLGLGFVLSFGYWTTNFVEVQRAMASDSLSSARKTPTIGAFPKMLVPFLTVLPGMLAAVLVPEIARMKAGEKVAGGASGSFVQYNDSVLFLIRNLLPTGLTGVAITGLLAAFMAGMAANISAFNTVFSVDIWQHYVIKDKPDGYYVKVGRIATVIATVVAIGTAFMASGFSNIMDYLQTLFGFFNAPLFATFILGMFWKRSTPHAGWSGLVVGTLSAVTVWVMSLAGVFTLPGQGTAFLAATVGFVADIIVSIVVSLFTEPKPAAELVRLVYSETPKEHLVDPLEKDLPWYRRTVPLGMTVLAITVVLNIIF”, for which the protein production result is recorded as “failed”. As for “MEALKRKIEEEGVVLSDQVLKVDSFLNHQIDPLLMQRIGDEFASRFAKDGITKIVTIESSGIAPAVMTGLKLGVPVVFARKHKSLTLTDNLLTASVYSFTKQTESQIAVSGTHLSDQDHVLIIDDFLANGQAAHGLVSIVKQAGASIAGIGIVIEKSFQPGRDELVKLGYRVESLARIQSLEEGKVSFVQEVHS”, the protein production entry is on record as “not failed”. Take “MEGIVSIVFSTYNNREKALKCIESCLKQKYNKLFVIVADDGSNDGSQELFKKIQEKDSRFKFIPLVHKERGIARGKAISLAKKLESEYIYIIDSDMILEDNLIEKCMSFFNKNKNVGALIVPEYAFSEYENFYSKVKVFERNIINNSGEDMGKNSIEAARFWRMDAYDLSGGINPSQISFEETQPTIRYVEKGGVVKRAVFTKVYHDEKFVTLRNLLKKKMYYFSVMDKTIQSEEGGFIKTLKRWYFFRPVLYRGSNLKRYLRHPILTIGMINMYVILTLVGVSQILKRKK”: the protein production entry is “failed”.

On to “MVPMASNNLAYIKLRLLSLLVGLGIAALASLIIYAVAYYLFGIYSIGIIFGVFVLVLMMDLLQWFIGPYIVDMVYRAKKADPNRYGNIIAIVEEVAKLNGIRPPTLYISEVSFPNAFAYESPIAGRRIAITRPLLGILNEDELRAVIGHEIGHLKHHDSAVIMAIGLIPTLIFYFAYTTLFAGDRRNGGSAIILALVLMVVSFLFNIMVLSVNRLRESYADANAALTIPNGARNLQTALAKIVRYGSSAKNTAASMLLFANYDMDREDVETLIDKWRTMRVGILSDLFSDHPHPAKRIRLLDKLQDSS”, for which the protein production entry is given as “failed”.

As to “MKVKKLVGTLLATALFFSALTATYYYQKYQALLANNVENTAKEALHQLAYTGREYNNIQDQIETISDLLGHSQSLYDYLREPSKANLTILENMWSSVARNQKLYKQIRFLDTSGTEKVRIKYDFKTSIAGPSLILRDKSAREYFKYAQSLDNEQISAWGIELERDKGELVYPLSPSLRILMPISVNDVRQGYLVLNVDIEYLSSLLNYSPVRDFHIELVKHKGFYIASPDESRLYGDIIPERSQFNFSNMYPDIWPRVVSEQAGYSYSGEHLIAFSSIKFVSNEPLHLIIDLSNEQLSKRATRDINDLIQESLFVLSLVLVFTLPITALALHYRRHSVESKLARAALDGMTAVMISDASLRIIMVNQEFENMMGYSTEQVKGSNAHSLILLPEDLEETLNIWNKLGRENVWEGEVRCRTQLNHVFTAIMRIQANLTKSGKISYYITSLVDISERKALEEQLRNLSEKDGLTGLWNRRKFEEQLTHYANIVERYPDTPTTCLALFDIDHFKRINDERGHDEGDKVICSVAETLLREVRTTDFVSRVGGEEFAVIMPHTTVKEAEVVLNRLRVAVQLRSNMTVTVSAGYSDLTADRTRSYKCADIALYESKSAGRNCVSLCHSIDDIA”, the protein production result is recorded as “failed”.

As for “MGSIEEVLLEERLIGYLDPGAEKVLARINRPSKIVSTSSCTGRITLIEGEAHWLRNGARVAYKTHHPISRSEVERVLRRGFTNLWLKVTGPILHLRVEGWQCAKSLLEAARRNGFKHSGVISIAEDSRLVIEIMSSQSMSVPLVMEGARIVGDDALDMLIEKANTILVESRIGLDTFSREVEELVECF”, the protein production result is listed as “not failed”.
